Measured values: article PMC8805299, “Determining the oxidation state of elements by X-ray crystallography” (Acta Crystallographica. Section D, Structural Biology, 2022)

Molecular target: the molecule itself
Experiment: crystal structure; diFe-SulE crystals grown anoxically in 0.1 M bis-Tris pH 5.5, 24% (w/v) PEG 3350 at 293 K, treated with 100 mM H2O2; data at 100 K; space group P63; three data sets at 5%, 10% and 100% beamline flux

B1: Sulfolobus tokodaii sulerythrin reconstituted with ferrous iron (diFe-SulE) (natural protein, UniProt F9VPE5 1-144, looked up)
chain: MKDLKGTKTAENLKQGFIGESMANRRYLYFAKRADEEGYPEIAGLLRSIAEGETAHAFGHLDFIRQGGLTDPATDKPIGTLEQMIESAIAGETYEWTQMYPGFAKVAREEGFPEVAEWFETLARAEKSHAEKFQNVLKQLKGGT
notes: Sulerythrin (SulE), Sulfolobus tokodaii, UniProt F9VPE5, residues 1-145; synthetic gene in pET-28a with an N-terminal Strep-tag and a TEV protease site; Domain-swapped homodimer; each of its two binuclear metal sites holds two iron ions (four in all); Crystals were treated with 100 mM H2O2; not shown: Strep-tag, N-terminal, cleaved
For B1, the “stoichiometry N” value was 2.
